B1: Septin-11 (Homo sapiens), Q9NVA2 (parent)
chain: MAVAVGRPSNEELRNLSLSGHVGFDSLPDQLVNKSTSQGFCFNILCVGETGIGKSTLMDTLFNTKFESDPATHNEPGVRLKARSYELQESNVRLKLTIVDTVGFGDQINKDDSYKPIVEYIDAQFEAYLQEELKIKRSLFNYHDTRIHACLYFIAPTGHSLKSLDLVTMKKLDSKVNIIPIIAKADTIAKNELHKFKSKIMSELVSNGVQIYQFPTDEETVAEINATMSVHLPFAVVGSTEEVKIGNKMAKARQYPWGVVQVENENHCDFVKLREMLIRVNMEDLREQTHTRHYELYRRCKLEEMGFKDTDPDSKPFSLQETYEAKRNEFLGELQKKEEEMRQMFVMRVKEKEAELKEAEKELHEKFDLLKRTHQEEKKKVEDKKKELEEEVNNFQKKKAAAQLLQSQAQQSGAQQTKKDKDKKNASFT
partner: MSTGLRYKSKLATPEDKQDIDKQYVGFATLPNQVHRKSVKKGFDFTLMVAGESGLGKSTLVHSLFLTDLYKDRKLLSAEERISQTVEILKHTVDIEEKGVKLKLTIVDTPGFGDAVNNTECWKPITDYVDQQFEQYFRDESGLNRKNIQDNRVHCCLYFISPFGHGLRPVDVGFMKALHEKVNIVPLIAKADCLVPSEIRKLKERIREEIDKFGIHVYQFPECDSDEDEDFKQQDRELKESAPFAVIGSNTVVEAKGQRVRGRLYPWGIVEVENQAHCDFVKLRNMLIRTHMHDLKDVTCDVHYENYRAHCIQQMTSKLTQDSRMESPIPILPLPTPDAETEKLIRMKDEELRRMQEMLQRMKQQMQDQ

Variants of: B1
Settings: with sept5_human SEPTIN5, Q99719

Variant | effect of a mutation on the interaction
S55N | disrupting interaction

— IntAct's records for PubMed 16767699
